In article PMC2192333 (The Journal of Experimental Medicine, 1996):

How the values were obtained:
ICAM-1 [1] = conditions: cited from earlier work
ICAM-1 [2] = assay: Adhesion of 293 cells transfected with CD11a I domain mutants/CD18 to ICAM-1Fc; format: cell-based, human; conditions: wide range of concentrations of ICAM-1, data not shown

Molecule | binding to ICAM-1 (ICAM-1 [1]) | adhesion to ICAM-1, wide range of ICAM-1 concentrations (ICAM-1 [2])
D137A (protein, UniProt P20701 26-1170, looked up, variant D137A) Integrin alpha-L: YNLDVRGARSFSPPRAGRHFGYRVLQVGNGVIVGAPGEGNSTGSLYQCQSGTGHCLPVTLRGSNYTSKYLGMTLATDPTDGSILACDPGLSRTCDQNTYLSGLCYLFRQNLQGPMLQGRPGFQECIKGNVDLVFLFAGSMSLQPDEFQKILDFMKDVMKKLSNTSYQFAAVQFSTSYKTEFDFSDYVKRKDPDALLKHVKHMLLLTNTFGAINYVATEVFREELGARPDATKVLIIITDGEATDSGNIDAAKDIIRYIIGIGKHFQTKESQETLHKFASKPASEFVKILDTFEKLKDLFTELQKKIYVIEGTSKQDLTSFNMELSSSGISADLSRGHAVVGAVGAKDWAGGFLDLKADLQDDTFIGNEPLTPEVRAGYLGYTVTWLPSRQKTSLLASGAPRYQHMGRVLLFQEPQGGGHWSQVQTIHGTQIGSYFGGELCGVDVDQDGETELLLIGAPLFYGEQRGGRVFIYQRRQLGFEEVSELQGDPGYPLGRFGEAITALTDINGDGLVDVAVGAPLEEQGAVYIFNGRHGGLSPQPSQRIEGTQVLSGIQWFGRSIHGVKDLEGDGLADVAVGAESQMIVLSSRPVVDMVTLMSFSPAEIPVHEVECSYSTSNKMKEGVNITICFQIKSLIPQFQGRLVANLTYTLQLDGHRTRRRGLFPGGRHELRRNIAVTTSMSCTDFSFHFPVCVQDLISPINVSLNFSLWEEEGTPRDQRAQGKDIPPILRPSLHSETWEIPFEKNCGEDKKCEANLRVSFSPARSRALRLTAFASLSVELSLSNLEEDAYWVQLDLHFPPGLSFRKVEMLKPHSQIPVSCEELPEESRLLSRALSCNVSSPIFKAGHSVALQMMFNTLVNSSWGDSVELHANVTCNNEDSDLLEDNSATTIIPILYPINILIQDQEDSTLYVSFTPKGPKIHQVKHMYQVRIQPSIHDHNIPTLEAVVGVPQPPSEGPITHQWSVQMEPPVPCHYEDLERLPDAAEPCLPGALFRCPVVFRQEILVQVIGTLELVGEIEASSMFSLCSSLSISFNSSKHFHLYGSNASLAQVVMKVDVVYEKQMLYLYVLSGIGGLLLLLLIFIVLYKVGFFKRNLKEKMEAGRGVPNGIPAEDSEQLASGQEAGDPGCLKPLHEKDSESGGGKD | critical to ICAM-1 binding | 
H/M53: human Ile-126 and Asn-129 replaced with murine residues Met and Lys, respectively (protein, UniProt P20701 26-1170, looked up, variant I126M N129K) Integrin alpha-L: YNLDVRGARSFSPPRAGRHFGYRVLQVGNGVIVGAPGEGNSTGSLYQCQSGTGHCLPVTLRGSNYTSKYLGMTLATDPTDGSILACDPGLSRTCDQNTYLSGLCYLFRQNLQGPMLQGRPGFQECMKGKVDLVFLFDGSMSLQPDEFQKILDFMKDVMKKLSNTSYQFAAVQFSTSYKTEFDFSDYVKRKDPDALLKHVKHMLLLTNTFGAINYVATEVFREELGARPDATKVLIIITDGEATDSGNIDAAKDIIRYIIGIGKHFQTKESQETLHKFASKPASEFVKILDTFEKLKDLFTELQKKIYVIEGTSKQDLTSFNMELSSSGISADLSRGHAVVGAVGAKDWAGGFLDLKADLQDDTFIGNEPLTPEVRAGYLGYTVTWLPSRQKTSLLASGAPRYQHMGRVLLFQEPQGGGHWSQVQTIHGTQIGSYFGGELCGVDVDQDGETELLLIGAPLFYGEQRGGRVFIYQRRQLGFEEVSELQGDPGYPLGRFGEAITALTDINGDGLVDVAVGAPLEEQGAVYIFNGRHGGLSPQPSQRIEGTQVLSGIQWFGRSIHGVKDLEGDGLADVAVGAESQMIVLSSRPVVDMVTLMSFSPAEIPVHEVECSYSTSNKMKEGVNITICFQIKSLIPQFQGRLVANLTYTLQLDGHRTRRRGLFPGGRHELRRNIAVTTSMSCTDFSFHFPVCVQDLISPINVSLNFSLWEEEGTPRDQRAQGKDIPPILRPSLHSETWEIPFEKNCGEDKKCEANLRVSFSPARSRALRLTAFASLSVELSLSNLEEDAYWVQLDLHFPPGLSFRKVEMLKPHSQIPVSCEELPEESRLLSRALSCNVSSPIFKAGHSVALQMMFNTLVNSSWGDSVELHANVTCNNEDSDLLEDNSATTIIPILYPINILIQDQEDSTLYVSFTPKGPKIHQVKHMYQVRIQPSIHDHNIPTLEAVVGVPQPPSEGPITHQWSVQMEPPVPCHYEDLERLPDAAEPCLPGALFRCPVVFRQEILVQVIGTLELVGEIEASSMFSLCSSLSISFNSSKHFHLYGSNASLAQVVMKVDVVYEKQMLYLYVLSGIGGLLLLLLIFIVLYKVGFFKRNLKEKMEAGRGVPNGIPAEDSEQLASGQEAGDPGCLKPLHEKDSESGGGKD |  | identical binding as that of wild-type CD11a
